Reference: US20090156542

Key:
[1] = biological target: biotinylated human D-MCP-1 (mirror-image D-protein) (Homo sapiens) (UniProt P13500); test: pulldown
[2] = biological target: biotinylated murine D-MCP-1 (mirror-image D-protein) (Mus musculus) (UniProt P10148); test: pulldown; settings: subnanomolar
[3] = biological target: human MCP-1 (CCL2, natural L-form) (Homo sapiens) (UniProt P13500); test: SPR; settings: L-RNA, 37 C, 1 mM Mg, 1 mM Ca
[4] = direct or competitive pull-down

biotinylated murine D-MCP-1 (mirror-image D-protein) (Mus musculus), sequence (P10148 24-99): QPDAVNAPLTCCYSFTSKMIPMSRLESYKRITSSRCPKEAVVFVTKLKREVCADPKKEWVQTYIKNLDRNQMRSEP
biotinylated human D-MCP-1 (mirror-image D-protein) (Homo sapiens), sequence (P13500 24-99): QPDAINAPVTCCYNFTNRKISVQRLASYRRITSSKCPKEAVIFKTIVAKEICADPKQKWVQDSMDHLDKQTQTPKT
human MCP-1 (CCL2, natural L-form) (Homo sapiens), sequence (P13500 24-99): as above

Sequence	Kd [1, 4] [nM]	Kd ([2]; stated for derivatives) [nM]	also measured
GUGCGCGUAGUUAAAAACUACCAGCGACUGGCUAGAGCCGGCGCAC [D-178-D5-030]	0.5		
CGCACGUCCCUCACCGGUGCAAGUGAAGCCGUGGCUCUGCG [D-180-D1-035]	< 1		
GCGCGUACCGAGGGGGCGUCGUUGGAGUUUGGUUGGUUGUCCGCGC [D-189-G7-010]		< 1	
GAUGGCGACAUUGGUUGGGCAUGAGGCGAGGCCCUUUGAUGAAUCCGCGGCCAUUC [D-188-A3-004]		< 1	
UGGUUACCGAGGGGGCGUCGUUGGAGUUUGGUUGGUUGUCACCA [D-189-G7-003]		< 1	
CUGGUUACCGAGGGGGCGUCGUUGGAGUUUGGUUGGUUGUCACCAG [D-189-G7-002]		< 1	
GCCGGUUACCGAGGGGGCGUCGUUGGAGUUUGGUUGGUUGUCACCGGC [D-189-G7-007]		< 1	
GUGCUGCGUAGUUAAAAACUACCAGCGACUGGCUAGAGCCGGCAGCAC [D-178-D5]	0.5		
GCUGGUUACCGAGGGGGCGUCGUUGGAGUUUGGUUGGUUGUCACCAGC [D-189-G7-001]			Kd [2]: < 1 nM
GCACGUCCCUCACCGGUGCAAGUGAAGCCGUGGCUCUGCG [NOX-E36 (180-D1-036)]			Kd ([3]; PioneerF1 chip): 0.89 nM
ACGCACGUCCCUCACCGGUGCAAGUGAAGCCGUGGCUCUGC [D-180-D1-012]	< 1		
AGCGUGCCCGGUGUGGUAGGGGGGCGCGACCUACAUUUGCACGCU [D-176-E10trc]			Kd ([1]; Type 1A): 5 nM
ACGCACGUCCCUCACCGGUGCAAGUGAAGCCGUGGCUCUGCGU [D-180-D1-002]	< 1		
GGGCCUACCGAGGGGGCGUCGUUGGAGUUUGGUUGGUUGUCGGCCC [D-189-G7-012]		< 1	
GCCGGCUACCGAGGGGGCGUCGUUGGAGUUUGGUUGGUUGUCGCCGGC [D-189-G7-008]		< 1	
GCACGUCCCUCACCGGUGCAAGUGAAGCCGUGGCUCUGCGU [D-180-D1-011]	< 1		
GUGCUGCGUAGUGAGAAACUACCAACGACUGGCUAGAGCCGGCAGCAC [D-181-A2]	0.1		
GGGCGUAGUGAGAAACUACCAACGACUGGCUAGAGCCGGCCC [181-A2-018]			Kd ([3]; CM4 chip): 0.37 nM
GGCGACAUUGGUUGGGCAUGAGGCGAGGCCCUUUGAUGAAUCCGCGGCCAUUC [D-188-A3-005]		< 1	
GGCGACAUUGGUUGGGCAUGAGGCGAGGCCCUUUGAUGAAUCCGCGGCCAUU [D-188-A3-006]		< 1	
AGCGUGCCAGUGUGAUGGGGGGGCGCGACCCAUUUUACACGCU [D-176-C9trc]			Kd ([1]; Type 1B): 5 nM
GAGAUGGCGACAUUGGUUGGGCAUGAGGCGAGGCCCUUUGAUGAAUCCGCGGCCAUUC [D-188-A3-001]			Kd [2]: < 1 nM
GCACGUCCCUCACCGGUGCAAGUGAAGCCGUGGCUCUGCG [D-NOX-E36 (D-180-D1-036)]			Kd ([1]; 37 C, selection buffer 1 mM Mg, 1 mM Ca): 0.146 nM; Kd ([1]; room temperature, selection buffer 1 mM Mg, 1 mM Ca): 0.89 nM
